# In patent US20250314655A1 (AUTOLUS, published 2025):
# No end group written: not given here.
# T1: TRBC1 peptide (biotinylated) (human, also: biotinylated (site not given here))
# T1 construct: In the monoclonal screen: biotinylated, 0.5 ug/ml on neutravidin-coated plates; In the polyclonal phage ELISA also presented as BSA or OA conjugate of the C-terminal-cysteine form; also called Bio-TRBC1; biotinylated TRBC1
# T1 peptide: VLEDLNKVFPPEVAV
# T2: TRBC2 peptide (biotinylated) (human, also: biotinylated (site not given here))
# T2 construct: In the monoclonal screen: biotinylated, 0.5 ug/ml on neutravidin-coated plates; In the polyclonal phage ELISA also presented as BSA or OA conjugate of the C-terminal-cysteine form; also called Bio-TRBC2; biotinylated TRBC2
# T2 peptide: VLEDLKNVFPPEVAV
# B1: CP_01_F02 (scFv, not shown: small tags and cut ends)
# scFv: QVQLVESGGGVVQPGRPLRLSCAASGFTFSSYAMHWVRQAPGKGLEWVAVISYDGSNKYYADSVKGRFTISRDNSKNTLYLQMNSLRAEDTAVYYCARAGYSYADYWGQGTMVTVSSGGGGSGGGGSGGGASDIQMTQSPSSLSASVGDRVTITCRASQGIRNDLGWYQQKPGKAPKRLIYAASSLQSGVPSRFSGSGSGTEFTLTISSLQPEDFATYYCLQHNSYPLTFGGGTKVDIKRTAAA
# notes: scFv from pSANG10-3F (His6, tri-FLAG), culture supernatant
# B2: CP_03_H06 (scFv, not shown: small tags and cut ends)
# scFv: QVQLVESGGGLVKPGGSLRLSCAASGFTFSDYYMSWIRQAPGKGLEWVSYISSSGSTIYYADSVEGRFTISRDNAKNSLYLQMNSLRTEDTAVYYCARARVGGMDVWGQGTMVTVSSGGGGSGGGGSGGGASNFMLTQPHSVSESPGKTVTISCTRSSGSIASNYVQWYQQRPGSSPTTVIYEDNQRPSGVPDRFSGSIDSSSNSASLTISGLKTEDEADYYCQSFDADNLHVVFGGGTKLTVLGQPAA
# notes: as for B1
# B3: CP_03_G02 (scFv, not shown: small tags and cut ends)
# scFv: EVQLVQSGAEVKKPGSSVKVSCKASGGTFSSYAISWVRQAPGQGLEWMGIINPSGGSTSYAQKFQGRVTMTRDTSTSIVYMELSSLRSEDTAVYYCARGVWNSGSYLGFDYWGQGTLVTVSSGGGGSGGGGSGGGASDIQMTQSPSSLSASVGDRVTITCQASQDISNYLNWYQQKPGKAPKLLIYAASSLQSGVPSRFSGSGSGTDFTLTISSLQPEDFATYYCQQSYSTPLTFGGGTKLEIKRTAAA
# notes: as for B1
# B4: CP_01_C08 (scFv, not shown: small tags and cut ends)
# scFv: EVQLLESGGGAVQPGRSLRLSCAASGFTFSSYAMHWVRQAPGKGLEWVAVISYDGSNKYYADSVKGRFTISRDNSKNTLYLQMNSLRAEDTAVYYCASGYSSSWYLDYWGQGTLVTVSSGGGGSGGGGSGGGASDIQMTQSPSSVSASVGDRVTITCQASQDISNYLNWYQQKPGKAPKLLIYDASNLETGVPSRFSGSGSGTDFTFTISSLQPEDIATYYCQQYDNLPLTFGGGTKVEIKRTAAA
# notes: as for B1
# B5: CP_01_F06 (scFv, not shown: small tags and cut ends)
# scFv: EVQLLESGGGVVQPGRSLRLSCAASGFTFSSYGMHWVRQAPGKGLEWVAVISYDGSNKYYADSVKGRFTISRDNSKNTLYLQMNSLRAEDTAVYYCAKDDGAMRYWGQGTMVTVSSGGGGSGGGGSGGGASDIQMTQSPDSLAVSLGERATINCKSSQSVLYSSNNKNYLAWYQQKPGQPPKLLIYWASTRESGVPDRFSGSGSGTDFTLTISSLQAEDVAVYYCQQYYDSPYTFGQGTKVDIKRTAAA
# notes: as for B1
# B6: CP_03_F09 (scFv, not shown: small tags and cut ends)
# scFv: QMQLVQSGAEVKKPGASVKVSCKASGYTFASYYMHWVRQAPGQGLEWMGIINPSGGSTSYAQKFQGRVTMTRDTSTSTVYMELSRLRSDDTAVYYCASNRGGSYKSVGMDVWGQGTTVTVSSGGGGSGGGGSGGGASNFMLTQPQSVSESPGKTVTISCTRSSGNFASKYVQWYQQRPGSSPTTVIYENYQRPSGVPDRFSGSIDSSSNSATLTISGLKTEDEADYYCQSYDEVSVVFGGGTQLTVLGQPAA
# notes: as for B1
# B7: CP_01_D03 (scFv, not shown: small tags and cut ends)
# scFv: QVQLVESGGGVVQPGRSLRLSCAAPGFTFSSYGMHWVRQAPGKGLEWVAVISYDGSNKYYADSVKGRFTISRDNSKNTLYLQMNSLRAEDTAVYYCARNKQYGMDVWGQGTLVTVSSGGGGSGGGGSGGGASDIVMTQSPATLSLAPGERATLSCRASQSVGSNLAWYQQKPGQAPSLLIYDASTRATGIPARFSGSGSGTDFTLTISSLQSEDIAVYYCQQYHRWPLTFGGGTKVEIKRTAAA
# notes: as for B1
# B8: CP_03_E05 (scFv, not shown: small tags and cut ends)
# scFv: EVQLVESGGGVVQPGGSLRLSCAASGFTFSSYAMSWVRQAPGKGLEWVSAISGSGGSTYYADSVKGRFSISRDNSKNTLYLQMNSLRAEDTAVYYCARTRSSGAFDIWGQGTLVTVSSGGGGSGGGGSGGGASNFMLTQPHSVSESPGKTVTISCTRSSGSIASKYVQWYQQRPGSSPTTVIYEDNQRPSGVPDRFSGSIDTSSNSASLTISGLRTEDEADYYCHSYDSNNHSVFGGGTKVTVLGQPAA
# notes: as for B1
# B9: CP_03_D04 (scFv, not shown: small tags and cut ends)
# scFv: EVQLVESGGGVVQPGRSLRLSCAASGFTFSSYAMHWVRQAPGKGLEWVAVISYDGSNKYYADSVKGRFTISRDNSKNTLYLQMNSLRAEDTAVYYCARGGFTVPGGAFDIWGQGTLVTVSSGGGGSGGGGSGGGASNFMLTQPHSVSDSPGKTVTISCTRSSGRIGSNFVQWYQQRPGSSPTTVIYEDDQRPSGVPARFSGSIDSSSNSASLTISGLTTADEAGYYCQSYDASNVIFGGGTKLTVLGQPAA
# notes: as for B1
# B10: CP_03_D05 (scFv, not shown: small tags and cut ends)
# scFv: QVQLVESGAEVKKPGASVKVSCKASGYTFTGYYMHWVRQAPGQGLEWMGRINPNSGGTNYAQKFQGRVTMTRDTSISTAYMELSRLRSDDTAVYYCASPRGRGSAFDIWGQGTLVTVSSGGGGSGGGGSGGGASSYELTQPPSVSVSPGQTATISCSGDQLGGKYGHWYQKKPGQSPVLVLYQDRKRPAGIPERFSGSSSGNTITLTISGTQAVDEADYYCQAWDTNLGGVFGGGTKVTVLGQPAA
# notes: as for B1
# B11: CP_01_C11 (scFv, not shown: small tags and cut ends)
# scFv: QVQLVESGAEVKKPGASVKVSCKASGYTFTGYYMHWVRQAPGQGLEWMGRINPNSGGTNYAQKFQGRVTMTRDTSISTAYMELSRLRSDDTAVYYCASGGAGWNWGQGTMVTVSSGGGGSGGGGSGGGASNFMLTQPHSVSESPGKTATISCTRSSGSIASNYVQWYQQRPGSAPTTVIYEDNQRPFGVPDRFSGSIDSSSNSASLTISGLKTEDEADYYCQSHDSSNVVFGGGTQLTVLGQPAA
# notes: as for B1
# B12: CP_03_C12 (scFv, not shown: small tags and cut ends)
# scFv: EVQLVQSGAEVKKPGASVKVSCKASGYTFTGYYMHWVRQAPGQGLEWMGWINPNSGGTNYAQKFQGRVTMTRDTSISTAYMELSSLRSEDTAVYYCARDTGPIDYWGQGTMVTVSSGGGGSGGGGSGGGASDIVMTQTPLSLSVTPGQPASISCKSSQSLLHSDGKTYLYWYLQKPGQPPQLLVYEVSNRFSGVPDKFSGSGSGTDFTLKISRVEAEDVGVYYCMQGIQLPPTFGGGTKVDIKRTAAA
# notes: as for B1
# B13: CP_03_G09 (scFv, not shown: small tags and cut ends)
# scFv: QVQLQQSGPGLVKPSQTLSLTCAISGDSVSSNSAAWNWIRQSPSRGLEWLGRTYYRSKWYNDYAVSVKSRITINPDTSKNQFSLQLNSVTPEDTAVYYCARDQWLANYYYYGMDVWGQGTLVTVSSGGGGSGGGGSGGGASSYELTQPLSVSVALGQTARITCGGNNIGSKNVHWYQQKPGQAPVLVIYRDNNRPSGIPERFSGSNSGNTATLTISKAQAGDEADYYCQVWDSNSWVFGGGTKLTVLGQPAA
# notes: as for B1
# B14: CP_01_E09 (scFv, not shown: small tags and cut ends)
# scFv: QVQLVESGGGVVQPGRSLRLSCAASGFTFSSYAMHWVRQAPGKGLEWVAVISYDGSNKYYADSVKGRFTISRDNSKNTLYLQMNSLRAEDTAVYYCARAHNSSSWSFDYWGQGTLVTVSSGGGGSGGGGSGGGASDIQMTQSPSSLSASVGDRVTITCRASQSISSYLNWYQQKPGKAPKLLIYDASNLETGVPSRFSGSGSGTDFTFTISSLQPEDIATYYCQQYDNLPLTFGGGTKVDIKRTAAA
# notes: as for B1
# B15: CP_01_E07 (scFv, not shown: small tags and cut ends)
# scFv: QVQLVESGGGVVQPGRSLRLSCAASGFTFSSYGMHWVRQAPGKGLEWVAVISYDGSNKYYADSVKGRFTISRDNSKNTLYLQMNSLRAEDTAVYYCAKDLGGSGGAFDIWGQGTLVTVSSGGGGSGGGGSGGGASDIVMTQTPHSLSVTPGQPASISCKSSQSLLYSDGKTYLYWYLQKPGQPPQLLIYEVSNRFSGVPDRFSGSGSGTDFTLKISRVEAEDVGVYYCMQSIQLYTFGQGTKVDIKRTAAA
# notes: as for B1
# B16: CP_03_D09 (scFv, not shown: small tags and cut ends)
# scFv: EVQLVQSGAEVKKPGSSVKVSCEASGYTFTSYAISWVRQAPGQGLEWMGWMNPNSGNTGYAQKFQGRVTMTRNTSISTAYMELSSLRSEDTAVYYCARVSSYYGMDVWGQGTLVTVSSGGGGSGGGGSGGGASNFMLTQPLSVSESPGKTVTISCTRSSGSIASNYVQWYQQRPGSAPTTVIYEDNQRPSGVPDRFSGSIDSSSNSASLTISGLKTEDEADYYCQSYNSSNHWVFGGGTKVTVLGQPAA
# notes: as for B1
# B17: CP_01_D10 (scFv, not shown: small tags and cut ends)
# scFv: QVQLVESGGGLVQPGRSLRLSCAASGFTFSSYAMHWVRQAPGKGLEWVAVISYDGSSKYYADSVKGRFTISRDNSKNTLYLQMNSLRAEDTAVYYCAKGGGSFGAFDIWGQGTLVTVSSGGGGSGGGGSGGGASDIQMTQSPSSLSASVGDRVTITCRASQSISRYLNWYQQKPGKAPNLLIYAASSLQSGVPSRFSGSGSGTDFTLTISSLQPEDFATYYCQQYNSYPLTFGGGTKLEIKRTAAA
# notes: as for B1
# B18: CP_01_D12 (scFv, not shown: small tags and cut ends)
# scFv: EVQLLESGGGVVQPGRSLRLSCAASGFTFSSYAMHWVRQAPGKGLEWVAVISYDGSNKYYADSVKGRFTISRDNSKNTLYLQMNSLRAEDTAVYYCAKGGDTYGFLDNWGQGTMVTVSSGGGGSGGGGSGGGASDIQMTQSPSTLSASVGDRVTITCRASQSISSWLAWYQQKPGKAPKLLIYKASSLESGVPSRFSGSGSGTDFTLTISSLQPEDFATYYCQQFNAYPLTFGGGTKVEIKRTAAA
# notes: as for B1
# B19: CP_03_F10 (scFv, not shown: small tags and cut ends)
# scFv: EVQLVESGAEVKKPGASVKVSCKASGYTFTGYYMHWVRQAPGQGLEWMGRINPNSGGTNYAQKFQGRVTMTRDTSISTAYMELSSLRSEDTAVYYCARFGERYAFDIWGQGTLVTVSSGGGGSGGGGSGGGASQSELTQPPSASGSPGQSVTISCTGTSTDVGAFHFVSWYQHTPGKAPKLLISEVRKRASGVPDRFSGSRSGNTASLTVSGLQSEDEADYFCSAYTGSNYVFGSGTKLTVLGQPAA
# notes: as for B1
# Legend:
# [1] = target: T1, TRBC1 peptide (biotinylated); test: TRF assay, scFv on biotin-peptide/neutravidin plate
# Method: (§1) The scFv populations from round-2 and round-3 selection outputs were sub-cloned into the pSANG10-3F expression vector and transformed into E. coli BL21 (DE3) cells. 1128 individual transformants (564 clones/TRBC peptide) were picked into 12×96 well culture plates (94 clones/plate) and antibody expression was induced using autoinduction media. Recombinant monoclonal antibodies secreted into culture supernatant after overnight induction were tested for binding to biotinylated TRBC1 and TRBC2 immobilised on neutravidin coated Nunc Maxisorp™ 96 well plates.
# [2] = target: T2, TRBC2 peptide (biotinylated); test: as above
# Method: as §1
Binder,TRBC1 binding [1],TRBC2 binding [2]
B1,302000 TRF units,–
B2,–,168000 TRF units
B3,–,152000 TRF units
B4,353000 TRF units,–
B5,325000 TRF units,–
B6,–,132000 TRF units
B7,328000 TRF units,–
B8,–,217000 TRF units
B9,–,143000 TRF units
B10,–,213000 TRF units
B11,349000 TRF units,–
B12,–,167000 TRF units
B13,–,139000 TRF units
B14,403000 TRF units,–
B15,332000 TRF units,–
B16,–,129000 TRF units
B17,371000 TRF units,–
B18,393000 TRF units,–
B19,–,140000 TRF units
